Positions of bridges follow the written chain, without caps; N, C: chain ends. Non-standard residues stand in square brackets, D forms with d. No end group written: not given here. *: point of attachment. Acetyl(2-(4-imidazolyl)) = O=C(Cc1c[nH]cn1)*; Aib = CC(C)(N)C(=O)O
B1: triple agonist of SEQ ID NO: 96 (peptide)
peptide: Y[Aib]QGTFTSDYSKYLDEKRAKEFVQWLLDHCPSSGQPPPS
modifications: bridge 16-20; not fully specified
B2: triple agonist of SEQ ID NO: 2 (peptide)
peptide: H[Aib]QGTFTSDVSSYLDGQAQKEFIAWLVKGC
modifications: not fully specified
B3: triple agonist of SEQ ID NO: 90 (peptide)
peptide: {Acetyl(2-(4-imidazolyl))}-[Aib]EGTFTSDYSIAMDEIHQKDFVNWLLAQKC
modifications: bridge 15-19; not fully specified
B4: triple agonist of SEQ ID NO: 100 (peptide)
peptide: Y[Aib]QGTFTSDYSKALDEKAAKEFVQWLLDQHPSSGQPPPSC
modifications: bridge 16-20
B5: triple agonist of SEQ ID NO: 88 (peptide)
peptide: {Acetyl(2-(4-imidazolyl))}-[Aib]QGTFTSDYSKYLDEKRQKEFVQWLLNTKC
modifications: bridge 15-19; not fully specified
B6: triple agonist of SEQ ID NO: 85 (peptide)
peptide: {Acetyl(2-(4-imidazolyl))}-[Aib]QGTFTSDYSIAMDEIHQKDFVNWLLAQC
modifications: bridge 15-19; not fully specified
B7: triple agonist of SEQ ID NO: 92 (peptide)
peptide: {Acetyl(2-(4-imidazolyl))}-[Aib]QGTFTSDYSIAMDEIHQKDFVNWLLAQKC
modifications: bridge 15-19; not fully specified
B8: triple agonist of SEQ ID NO: 10 (peptide)
peptide: H[Aib]QGTFTSDVSKYLDGQAAQEFVAWLLAGGGPSSGAPPPSC
modifications: not fully specified
B9: triple agonist of SEQ ID NO: 98 (peptide)
peptide: Y[Aib]QGTFTSDYSKALDEKAAKEFVNWLLDHHPSSGQPPPSC
modifications: bridge 16-20; not fully specified
B10: triple agonist of SEQ ID NO: 16 (peptide)
peptide: {Acetyl(2-(4-imidazolyl))}-GQGTFTSDLSKQMDSEAQQLFIEWLKNGGPSSGAPPPSHG
modifications: not fully specified; also: ring from underlined residues, positions not shown
B11: triple agonist of SEQ ID NO: 93 (peptide)
peptide: {Acetyl(2-(4-imidazolyl))}-[Aib]QGTFTSDYSKYLDEKRQKEFVNWLLAQKC
modifications: bridge 15-19; not fully specified
B12: triple agonist of SEQ ID NO: 86 (peptide)
peptide: {Acetyl(2-(4-imidazolyl))}-[Aib]QGTFTSDYSKYLDEKRQKEFVNWLLAQC
modifications: bridge 15-19; not fully specified

biological target: human GLP-1 receptor (human, UniProt P43220 24-463); test: cell-based or functional assay

Binder | In vitro activity (%) compared with native peptide: vs GLP-1
B1 | 34.4%
B2 | 5.9%
B3 | 7.4%
B4 | 42.2%
B5 | 9.6%
B6 | 4.3%
B7 | 0.8%
B8 | 46%
B9 | 28.1%
B10 | 2.1%
B11 | 5.7%
B12 | 28.4%

biological target: human GCG receptor (human, UniProt P47871 26-477); test: cell-based or functional assay
Sequence (P47871 26-477): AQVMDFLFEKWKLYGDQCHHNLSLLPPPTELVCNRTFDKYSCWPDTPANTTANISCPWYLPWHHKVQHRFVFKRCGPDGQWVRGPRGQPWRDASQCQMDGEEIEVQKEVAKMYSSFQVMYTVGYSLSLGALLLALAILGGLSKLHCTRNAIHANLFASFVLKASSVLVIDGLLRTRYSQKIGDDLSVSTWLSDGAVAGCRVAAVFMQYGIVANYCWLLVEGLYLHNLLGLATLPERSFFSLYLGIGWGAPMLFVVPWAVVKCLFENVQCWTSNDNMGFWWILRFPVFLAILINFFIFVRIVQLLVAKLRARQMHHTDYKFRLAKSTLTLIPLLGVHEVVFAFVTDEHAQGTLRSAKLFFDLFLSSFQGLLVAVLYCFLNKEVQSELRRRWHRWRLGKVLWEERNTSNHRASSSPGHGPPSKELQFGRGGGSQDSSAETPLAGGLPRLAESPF

Binder | In vitro activity (%) compared with native peptide: vs Glucagon
B1 | 195%
B2 | < 0.1%
B3 | < 0.1%
B4 | 12.7%
B5 | 0.3%
B6 | < 0.1%
B7 | < 0.1%
B8 | < 0.1%
B9 | 8.2%
B10 | < 0.1%
B11 | 0.3%
B12 | 0.4%

biological target: T1, human GIP receptor (human, UniProt P48546 22-466); test: cell-based or functional assay
T1 sequence (looked up): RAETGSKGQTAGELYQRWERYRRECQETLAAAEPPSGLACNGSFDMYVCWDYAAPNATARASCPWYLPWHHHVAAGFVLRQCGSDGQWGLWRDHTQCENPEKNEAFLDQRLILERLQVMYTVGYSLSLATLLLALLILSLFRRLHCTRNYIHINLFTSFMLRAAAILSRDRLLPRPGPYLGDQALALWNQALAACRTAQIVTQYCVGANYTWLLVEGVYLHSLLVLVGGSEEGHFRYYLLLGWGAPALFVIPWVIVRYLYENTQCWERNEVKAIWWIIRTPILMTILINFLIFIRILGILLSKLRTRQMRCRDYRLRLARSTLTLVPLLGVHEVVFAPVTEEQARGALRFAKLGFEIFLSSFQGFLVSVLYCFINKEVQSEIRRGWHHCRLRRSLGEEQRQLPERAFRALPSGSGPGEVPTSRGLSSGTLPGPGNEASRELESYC

Binder | In vitro activity (%) compared with native peptide: vs GIP
B1 | 5.2%
B2 | < 0.1%
B3 | < 0.1%
B4 | 118%
B5 | < 0.1%
B6 | 0.3%
B7 | 0.4%
B8 | < 0.1%
B9 | 47.1%
B10 | < 0.1%
B11 | 0.7%
B12 | 0.2%

— patent publication US20230372448A1, “THERAPEUTIC USE OF LONG-ACTING CONJUGATE OF TRIPLE AGONIST ACTING ON ALL OF GLUCAGON, GLP-1 AND GIP RECEPTORS AGAINST MULTIPLE SCLEROSIS” (HANMI PHARM. CO. ,LTD., priority 2020, published 2023)
